Source: paper PMC5311487

T1: MEC-8 RRM1 (Caenorhabditis elegans, UniProt G5ECJ4 28-123, C54A;C102A)
T1 sequence: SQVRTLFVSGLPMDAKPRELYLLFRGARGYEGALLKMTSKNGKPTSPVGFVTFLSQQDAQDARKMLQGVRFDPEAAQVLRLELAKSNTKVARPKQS


Each binder was assayed against T1, MEC-8 RRM1 (assay: ITC).

Row | Binder | Kd [nM]
1 | AACACAUUUUUUUUAACACA (ssRNA) [10-nt spacer (G2A/G16A)] | 900 ± 100

Target: T1, MEC-8 RRM1
Experiment: ITC
Remark: another data set of the same source

Row | Binder | Kd [nM]
2 | AGCACAUUUUUUUUUUAGCACA (ssRNA) [12-nt spacer] | 80 ± 20
3 | AGCACAUUUUUUAGCACA (ssRNA) [8-nt spacer] | 180 ± 40
4 | AUCACA (ssRNA) [6-mer (G2U)] | 20400 ± 800
5 | AGCACAUUUU (ssRNA) [6-mer + 4U] | 1750 ± 30
6 | ACCACAUUUUUUUUACCACA (ssRNA) [10-nt spacer (G2C/G16C)] | 1560 ± 10
7 | AGCACAUUUUUUUUUUUUAGCACA (ssRNA) [14-nt spacer] | 110 ± 70
8 | AAUCCAUUGCACUCCGGAUUU (structured_RNA) [U1A stem-loop] | 240 ± 20
9 | AGCACAUUUUUUUUAUCACA (ssRNA) [10-nt spacer (WT/G16U)] | 260 ± 80
10 | AGCACAUUUUUUUUAGCACA (ssRNA) [10-nt spacer] | 150 ± 40
11 | AUCACAUUUUUUUUAUCACA (ssRNA) [10-nt spacer (G2U/G16U)] | 1290 ± 40
12 | AGCACAUUAGCACA (ssRNA) [4-nt spacer] | 380 ± 90
13 | AGCACAUUUUUUUUAGCAUA (ssRNA) [10-nt spacer (WT/C19U)] | 450 ± 30
14 | AGCACAUUUUAGCACA (ssRNA) [6-nt spacer] | 330 ± 10
